Results as given in patent publication US7268216B2, “Chimeric avidin mutants” (Licentia Oy, priority 2004, dated 2007).
Read-outs that look alike come from different tables or passages of the source.

Columns and labels:
Proteinase K [1] = conditions: even without bound biotin; refs (8,32); cited from earlier work
[2] = Differential scanning calorimetry (DSC), heat denaturation; assay type: physicochemical
Method: The transition midpoint of the heat denaturation (Tm) of the avidin proteins was studied using a Calorimetry Sciences Corporation (CSC) Nano II differential scanning calorimeter, as in previous reports (22,23). Proteins (˜0.5 mg/ml) were analyzed both in the absence and presence of biotin (3:1 molar ratio; biotin:avidin monomer).

Proteinase K [3] = assay: Proteinase K assay (proteolytic resistance, SDS-PAGE); assay type: physicochemical; conditions: for digested after treatment with Proteinase K: 16 hours, 37° C., Proteinase K 1/25 w/w, without biotin; for cleavage by Proteinase K: proteins saturated with biotin before treatment
Method: The proteolytic resistance of the proteins were studied using proteolysis by Proteinase K, as previously described (7). Protein sample (4 μg) was incubated in the presence of Proteinase K ( 1/25 w/w) at 37° C. for a predetermined time period, denatured by boiling in sample buffer (SDS, 2-mercaptoethanol) and subjected to SDS-PAGE followed by coomassie staining.

[4] = Microplate assay: remaining biotin-binding activity after heat treatment; assay type: physicochemical; conditions: 50 mM phosphate buffer, 100 mM NaCl, pH 7.0
Method: The inactivation of the proteins during heat-treatment was analysed by using a microplate assay (23). The proteins were heated to 99.9° C. in 50 mM phosphate buffer containing 100 mM NaCl (pH 7.0) for 32 minutes. The remaining activity was probed by measuring the ability of the proteins to bind biotinylated alkaline phosphatase by coating the microplate wells with samples of the heated proteins.

[5] = Fluorescent biotin dissociation assay; assay type: binding
Method: The binding of labelled biotin to avidins was analysed by a method based on the quenching of a biotin-coupled fluorescent probe ArcDia BF560 (ArcDia Ltd., Turku, Finland) due to binding to avidin, as previously described (18). The measurements were performed using a PerkinElmer LS55 luminometer with thermostated cuvette (25 or 50° C.). The signal measured for 3600 sec (25° C.) or 2400 sec (50° C.) was used to determine the dissociation rate constant.

[6] = Radiobiotin dissociation assay; assay type: binding; conditions: [3H]biotin, various temperatures
Method: The dissociation rate of [3H]biotin from avidin, AVR4/5 and the avidin mutants was determined as described in (20) at various temperatures. The activation thermodynamic parameters for AVR4/5(C122S) and avidin were determined by analysis of the dependence of the dissociation rate upon temperature using the global fit of all data, as described in (21).

[7] = IAsys optical biosensor (SPR), 2-iminobiotin binding; conditions: 2-iminobiotin surface, 20° C., 50 mM borate buffer pH 9.5, 1 M NaCl
Method: The biotin-binding characteristics of the different avidins were studied by a surface plasmon resonance (SPR) optical biosensor (IAsys). The binding affinities to the 2-iminobiotin surface in 50 mM borate buffer (pH 9.5, 1 M NaCl) were measured as previously reported (7).

[8] = cited from earlier work

Substance | resistance to cleavage by Proteinase K (Proteinase K [1]) | Tm, transition midpoint of heat denaturation [2] | ΔTm, change in Tm upon addition of a three-fold molar excess of biotin ([2]; DSC) | Tm(+biotin) ([2]; DSC, biotin 3:1 molar ratio biotin:avidin monomer) | ΔH (unfolding enthalpy) ([2]; DSC, sample without biotin) | Tm(−biotin) ([2]; DSC, without biotin, average ± S.D) | digested after treatment with Proteinase K (Proteinase K [3]) | cleavage by Proteinase K (Proteinase K [3]) | Activity: biotin-binding activity after 32 min treatment at 99.9° C. [4] | Release 1 h (total release of the probe) ([5]; 25° C.) | kdiss, dissociation rate constant ([5]; 25° C.) | Release 1 h (total release of the probe) ([5]; 50° C.) | kdiss, dissociation rate constant ([5]; 50° C.) | biotin binding / dissociation rate in radiobiotin dissociation assay [6] | kass, association rate constant [7] | ΔH (unfolding enthalpy) ([8]; DSC, sample without biotin, results from ref (8)) | Tm(+biotin) ([8]; DSC, with biotin, results from ref (8)) | Tm(−biotin) ([8]; DSC, without biotin, results from ref (8)) | ΔTm, change in Tm upon addition of a three-fold molar excess of biotin ([8]; DSC, results from ref (8)) | Tm, transition midpoint of heat denaturation ([8]; from ref (8))
streptavidin: Bacterial analogue of avidin from Streptomyces avidinii | resistant to cleavage | – | – | – | – | – | – | – | – | – | – | – | – | – | – | – | – | – | – | –
AVD(I117Y): Avidin with mutation I117Y in 1-3 subunit interface, produced in baculovirus-infected insect cells | – | 97.5 °C | 26.2 °C | 123.7 ± 0.1 °C | 536 ± 6 kJ/mol | 97.5 ± 0.4 °C | 50% | no cleavage was observed | 47% | 3.0% | 0.81 10^−5 s^−1 | 56.5% | 1.61 10^−4 s^−1 | very tight, avidin-like biotin binding | (2.3 ± 0.3) × 10^4 M^−1s^−1 | – | – | – | – | –
AVD: Chicken avidin obtained from Belovo S. A.; homotetrameric egg-white glycoprotein (SEQ ID NO:1) [reference compound] | – | – | – | – | – | – | 50% | no cleavage was observed | 4% | 10.7% | 2.04 10^−5 s^−1 | 71.5% | 2.74 10^−4 s^−1 | – | (2.6 ± 0.2) × 10^4 M^−1s^−1 | 329 ± 5 kJ/mol | 117.0 ± 0.7 °C | 83.5 ± 0.1 °C | 33.5 °C | 83.5 °C
